# Measured values reported in the supplement of paper PMC10724198.
# ± gives the standard deviation of the averaged measurements.
# Test system: Saccharomyces cerevisiae
# Test: protein stability index of tFT-peptide fusion (C-terminal peptide) (PSI (0-1 scale)); higher = more stable (slower turnover)
# Conditions: genetic background: wild type; temperature: 30 C
# Method: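 Multiplexed protein stability (MPS) profiling in S. cerevisiae. Random 12-aa peptides (tFT-X12 library) are fused to the C-terminus of a sfGFP-mCherry tandem fluorescent timer, after mCherry and a GGGS linker. Cells are FACS-sorted into 8 mCherry/sfGFP bins and deep-sequenced. The protein stability index (PSI) is the read-weighted bin average, scaled from 0 (unstable) to 1 (stable). Only peptides with >10 reads are reported; cells were grown at 30 °C in SC-His with glucose.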
# 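Further: PSI is a weighted mean of sequencing reads over stability bins, variants kept only with over 10 reads, mCherry proximal and sfGFP distal, peptide attached via GGGS linker.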
row,Sequence,protein stability index
1,EGGARGCGEGSQ,0.656 ± 0.015
2,EGGEWGSFGSAV,0.704 ± 0.0094
3,EGGGGGGAPRVR,0.752 ± 0.093
4,EGGGGGPGDARR,0.663 ± 0.025
5,EGLSYSFGDCPM,0.754 ± 0.03
6,EGRAAETFVCAI,0.6429 ± 0.0055
7,EGRSVWVVGRAV,0.652 ± 0.045
8,EGSPIVNSLALD,0.668 ± 0.017
9,EGVCEIEMRGSR,0.788 ± 0.021
10,EGVGGGRWCGRG,0.666 ± 0.055
11,EGVGRGCSGGCW,0.713 ± 0.055
12,EGYRDMAFKLCK,0.697 ± 0.0093
13,EHLYIYGKDKWK,0.602 ± 0.025
14,EHMEYKSMVSCA,0.51 ± 0.059
15,EHRPCQGVMYII,0.522 ± 0.0026
16,EIDMLVVRNLKH,0.664 ± 0.044
17,EIKGTQRKGGKR,0.726 ± 0.055
18,EINIMKIIYRKI,0.666 ± 0.044
19,EIPGPLALSPAG,0.736 ± 0.015
20,EKCCGAAVMARC,0.561 ± 0.015
21,EKIRSARKKTIH,0.735 ± 0.0082
22,EKKEKTPKPKPR,0.685 ± 0.025
23,EKKKKKKKKKKK,0.7721 ± 0.003
24,EKKKNKTKKKTN,0.688 ± 0.056
25,EKKKTKKKTIKK,0.636 ± 0.03
26,EKQKGIVQADKI,0.665 ± 0.046

row,Sequence,protein stability index
1,EKVRICKWKGGI,0.616 ± 0.061
2,EKWMRYLARCDI,0.6882 ± 0.0012
3,EKYELHEVEKEI,0.597 ± 0.049
4,ELHEETEKSKYR,0.74 ± 0.11
5,ELLTVQLHKAAR,0.706 ± 0.0076
6,ELRLYFPRLFQF,0.496 ± 0.0078
7,ELSLSCPPLETP,0.768 ± 0.034
8,ELSRLLPASFSL,0.696 ± 0.032
9,ELVGGEGIGGGL,0.581 ± 0.024
10,EMCRCVEGREEG,0.6704 ± 0.0036
11,ENKKKKKNIEKK,0.702 ± 0.04
12,ENRNKSYEISRP,0.7015 ± 0.0052
13,EPGLIPVAGTFF,0.76 ± 0.011
14,EPNEKEKNKEVK,0.704 ± 0.0079
15,EPPLPEPPLSRS,0.705 ± 0.023
16,EQDDGARMIRRV,0.683 ± 0.027
17,EQDLSTKVKRST,0.65 ± 0.12
18,ERGAEGKKEPEK,0.6534 ± 0.0061
19,ERGGGRRRLSNA,0.656 ± 0.062
20,ERGRKGGAGARD,0.6439 ± 0.0047
21,ERINFSRRDFDC,0.805 ± 0.059
22,ERKNRKIRREKK,0.774 ± 0.16
23,ERLLLGLNRRLG,0.643 ± 0.055
24,ERLLMLSGLRRA,0.779 ± 0.1
25,ERLRLVPRKGLL,0.714 ± 0.048
26,ERLRSDSLSYDI,0.714 ± 0.052

row,Sequence,protein stability index
1,ERSWQEKGVVRG,0.699 ± 0.06
2,ERVGLISSRRGC,0.696 ± 0.014
3,ERYRDVPVTSNR,0.724 ± 0.013
4,ESALPFLYSLSG,0.703 ± 0.021
5,ESEGSGVGACGG,0.681 ± 0.02
6,ESGPQWLGTFVT,0.733 ± 0.0094
7,ESGTVINKNSNK,0.6661 ± 0.0054
8,ESQGYGSQAKLA,0.694 ± 0.028
9,ESVPPILGQDPL,0.773 ± 0.035
10,ETGMSHHINRIW,0.752 ± 0.054
11,ETKKEETKRWRR,0.6789 ± 0.0025
12,ETVFESFEVKCG,0.68 ± 0.022
13,ETVRPYSPMRPG,0.674 ± 0.016
14,EVCLTLTTADGH,0.68826 ± 0.00011
15,EVEKKKKKKNNK,0.663 ± 0.04
16,EVGTSGTWPGSV,0.714 ± 0.013
17,EVLLVHWINPNA,0.687 ± 0.047
18,EVMGGANDCGVV,0.689 ± 0.012
19,EVRLGKDKANRI,0.691 ± 0.067
20,EVRSDSFFKCEG,0.6606 ± 0.0046
21,EVRTRSSRIHRI,0.709 ± 0.082
22,EVYAGGESDVMS,0.637 ± 0.029
23,EWCGSLVVWTGG,0.668 ± 0.018
24,EWGKCGRGLYGC,0.666 ± 0.033
25,EWPVGLLREGLG,0.6177 ± 0.0016
26,EWVKFCFPIVQS,0.651 ± 0.048

row,Sequence,protein stability index
1,EYKIKSIERRKK,0.73 ± 0.04
2,EYQGARAAGQSL,0.678 ± 0.02
3,FACVLVLFPFFL,0.641 ± 0.099
4,FAFWGGHSWLSC,0.791 ± 0.035
5,FAGNRDQEEERK,0.706 ± 0.022
6,FALPSASHFPVP,0.7289 ± 0.0046
7,FAPRRDPMQVQY,0.6744 ± 0.0032
8,FASIESVENIEM,0.709 ± 0.07
9,FAVLGGGVGGGG,0.683 ± 0.043
10,FCCVAPLALPRM,0.686 ± 0.013
11,FCFLAFLKTPKS,0.58 ± 0.038
12,FCPEGGYSVFYL,0.719 ± 0.019
13,FCPPMPSVIALH,0.649 ± 0.024
14,FCRFCEFIFIFL,0.499 ± 0.056
15,FCSCLCGGEFVR,0.69 ± 0.03
16,FCSPPTLPPSPS,0.732 ± 0.024
17,FCVFVGSSLVGF,0.659 ± 0.019
18,FCVQRWWGEGGH,0.6176 ± 0.0017
19,FDFISHLYWSIV,0.582 ± 0.011
20,FDLPPCVPRARP,0.767 ± 0.099
21,FDLTFPPPPLPF,0.719 ± 0.052
22,FDPTGPIGMRPT,0.653 ± 0.0017
23,FDVLGPRVVSWV,0.633 ± 0.093
24,FEAVDSLFMLVL,0.686 ± 0.034
25,FEFGGGIRGSLG,0.679 ± 0.048
26,FEIVARTYNVDT,0.666 ± 0.023

row,Sequence,protein stability index
1,FESRGEPPDIQV,0.668 ± 0.049
2,FESTIKNINNSI,0.714 ± 0.011
3,FFAFLLRSPSTS,0.711 ± 0.064
4,FFFFPLLSVPDR,0.6101 ± 0.0026
5,FFFGFFSVLSLG,0.606 ± 0.089
6,FFFPGLLVPLFP,0.727 ± 0.025
7,FFLPPPPPPPPL,0.677 ± 0.015
8,FFLPTLQLTPYL,0.795 ± 0.19
9,FFMPRCCSLALE,0.644 ± 0.047
10,FFSHSAPAPFPL,0.692 ± 0.017
11,FFVFFPLGGFWL,0.668 ± 0.085
12,FFVGFASLRLVL,0.5517 ± 0.0046
13,FFVVAPSPSPRL,0.761 ± 0.0073
14,FFYYPSFLPSPL,0.685 ± 0.011
15,FGFIEGKRLGIT,0.62 ± 0.041
16,FGFRLFLPSFSA,0.6433 ± 0.0029
17,FGGGGGGGLLWC,0.739 ± 0.071
18,FGGLLFTRFGWE,0.802 ± 0.056
19,FGLARGMFFLTV,0.629 ± 0.056
20,FGLCRSLESRQF,0.6606 ± 0.0026
21,FGLPPGNWSSGH,0.782 ± 0.028
22,FGNVLISMRNRL,0.834 ± 0.11
23,FGPLFSEDTRKV,0.703 ± 0.076
24,FGRFVLSCFDRK,0.661 ± 0.019
25,FGRGGGGFLTLV,0.647 ± 0.0034
26,FGSCVVVRRVGF,0.619 ± 0.056

row,Sequence,protein stability index
1,FGVHCSSPTSGG,0.6684 ± 0.0013
2,FGVTRSPLDPLF,0.665 ± 0.043
3,FGWEGGEEMAGG,0.788 ± 0.0097
4,FHGGRGLLLGMN,0.649 ± 0.077
5,FIPPPLALPFYS,0.674 ± 0.056
6,FKCWAGVRCGMV,0.611 ± 0.013
7,FKLVPCLGPSHF,0.741 ± 0.047
8,FLAGGRFLCIVV,0.593 ± 0.098
9,FLCPGELSYFCV,0.666 ± 0.03
10,FLFRSFACALPS,0.522 ± 0.0081
11,FLFSYIEGSPNP,0.721 ± 0.073
12,FLFWFLFFCSSR,0.49 ± 0.022
13,FLGGVGGLVLIG,0.6672 ± 0.0047
14,FLHPLTPSPPLA,0.711 ± 0.096
15,FLHPSPIPPPLP,0.7092 ± 0.0012
16,FLLKKVLCINWQ,0.545 ± 0.0028
17,FLLLSAGERCWD,0.694 ± 0.085
18,FLLPLKCRSTTN,0.712 ± 0.046
19,FLLPPASLSLPP,0.7074 ± 0.0034
20,FLPFRPFPPFSA,0.621 ± 0.0064
21,FLPPSRFSPLRL,0.708 ± 0.11
22,FLSEFFMPSPFP,0.745 ± 0.097
23,FLSFIALLPFTS,0.6748 ± 0.0021
24,FMACGVNIELRV,0.643 ± 0.0088
25,FNCCSYTSPASG,0.649 ± 0.015
